Measured values reported in article PMC12057046, “Elucidation of short linear motif-based interactions of the MIT and rhodanese domains of the ubiquitin-specific protease 8” (Biology Direct, 2025).
Blank lines part the entries; values can stand above or below the binder they belong to. Ends that are not written are not given here. * marks the point of attachment. FITC = O=C1OC2(c3ccc(O)cc3Oc3cc(O)ccc32)c2ccc(NC(=S)*)cc21

Legend:
Conditions in all cases: both partners purified
[1] = target: T1, GST-tagged USP8 MIT domain (1-142) (human, UniProt P40818 1-142); experiment: peptide or protein array; SPOT array, cellulose-bound peptides; GST-tagged MIT domain 100 µM in 5% skim milk in TBST overnight at 4 °C; detected with HRP-conjugated anti-GST antibody
T1 construct: Ubiquitin carboxyl-terminal hydrolase 8 (USP8), human, MIT domain, residues 1-142; pETM33 vector, synthesized by GenScript; source: E. coli BL21-Gold (DE3), purified (glutathione sepharose, eluted with reduced glutathione)
T1 sequence (looked up): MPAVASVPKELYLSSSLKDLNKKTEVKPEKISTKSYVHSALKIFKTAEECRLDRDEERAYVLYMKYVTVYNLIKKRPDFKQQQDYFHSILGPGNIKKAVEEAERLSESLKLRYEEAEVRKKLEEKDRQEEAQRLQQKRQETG

[2] = target: T2, USP8 rhodanese domain (174-317), GST tag cleaved (human, UniProt P40818 174-317); experiment: fluorescence polarisation; competitive: 1.5 µM protein preincubated with 10 nM FITC-labeled peptide, displaced by increasing concentration of unlabeled peptide; 50 mM sodium phosphate pH 7.4, 1 mM DTT
T2 construct: Ubiquitin carboxyl-terminal hydrolase 8 (USP8), human, rhodanese domain, residues 174-317; also called Rhod domain; source: E. coli BL21-Gold (DE3), purified (glutathione sepharose, GST cleaved on beads with HRV 3C protease)
T2 sequence (looked up): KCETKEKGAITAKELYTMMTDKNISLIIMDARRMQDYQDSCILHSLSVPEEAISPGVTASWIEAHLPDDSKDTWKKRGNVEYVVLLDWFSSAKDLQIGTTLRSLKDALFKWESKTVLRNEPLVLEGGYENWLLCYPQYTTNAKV

[3] = target: T3, GST-tagged USP8 rhodanese domain (174-317) (human, UniProt P40818 174-317); experiment: peptide or protein array; SPOT array, cellulose-bound peptides; GST-tagged Rhodanese domain 150 µM in 5% skim milk in TBST overnight at 4 °C; detected with HRP-conjugated anti-GST antibody
T3 construct: Ubiquitin carboxyl-terminal hydrolase 8 (USP8), human, rhodanese domain, residues 174-317; pETM33 vector, synthesized by GenScript; also called Rhod domain; source: E. coli BL21-Gold (DE3), purified (glutathione sepharose, eluted with reduced glutathione)
T3 sequence (looked up): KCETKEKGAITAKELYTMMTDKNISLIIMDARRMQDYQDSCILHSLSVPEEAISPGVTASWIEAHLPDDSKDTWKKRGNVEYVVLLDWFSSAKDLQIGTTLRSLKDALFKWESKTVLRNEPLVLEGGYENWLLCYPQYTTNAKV

USP8 Rhod (174–317) = target: T4, USP8 Rhod (174–317) (human, UniProt P40818 174-317); experiment: fluorescence polarisation; direct binding: constant concentration of FITC-labeled peptide, increasing concentration of the protein; 50 mM sodium phosphate buffer pH 7.4, 1 mM DTT; KD from a fit to a quadratic equation
T4 construct: Ubiquitin carboxyl-terminal hydrolase 8 (USP8), human, UniProt P40818, rhodanese domain, residues 174-317; Construct in the pETM33 vector, synthesized by GenScript; also called USP8_Rhodanese; USP8 rhodanese domain; source: E. coli BL21-Gold (DE3), purified (GSH sepharose)
T4 sequence (looked up): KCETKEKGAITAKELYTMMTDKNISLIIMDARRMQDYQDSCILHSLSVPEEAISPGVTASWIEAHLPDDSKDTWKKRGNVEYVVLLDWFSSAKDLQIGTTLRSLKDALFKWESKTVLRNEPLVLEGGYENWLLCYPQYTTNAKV

binding result [1]: binds
B1: DBP 116-131 peptide, cellulose-bound (SPOT array) (peptide)
peptide: YVDLDAFLLEHGLPPS
notes: also called positive control; source: array of predicted peptides: JPT Peptide Technologies

Kd [2]: 10 ± 2 µM
B2: KIAA1614 568-583 peptide, synthetic (peptide)
peptide: GMERVLGGLSSPLRLL
notes: also called positive control; source: JPT Peptide Technologies; free, unlabelled for fluorescence polarisation (GeneCust, >95% purity)

binding result [3]: binds
B3: Tumour protein 63 608-622 peptide, cellulose-bound (SPOT array) (peptide, UniProt Q9H3D4 608-622, looked up)
peptide: HEFSSPSHLLRTPSS
notes: holds an SSPxxL[LM] motif; source: alanine scan: INTAVIS

Kd (USP8 Rhod (174–317)): 700 nM
B4: FITC-TET3 1705-1720 peptide (Methylcytosine dioxygenase TET3) (peptide)
peptide: {FITC}-GLALWEAKMKQLAERA
notes: also called probe peptide; source: synthetic peptide, bought: GeneCust (France), > 95% purity

binding result [3]: binds
B5: Keratin-85 41-55 peptide, cellulose-bound (SPOT array) (peptide, UniProt P78386 41-55, looked up)
peptide: GVSCYRGLTGFGSRS
notes: Keratin-85 (KRT85), residues 41-55; holds an Rx[LI]xG motif; also called KRT85_(41 − 55); source: bought: JPT Peptide Technologies, cellulose membrane

Kd [2]: 33 ± 9 µM
B6: TET3 1705-1720 peptide, unlabelled, synthetic (peptide)
peptide: GLALWEAKMKQLAERA
notes: source: synthetic peptide (GeneCust, >95% purity)

binding result [1]: binds
B7: DNAJB6 118-130 peptide, cellulose-bound (SPOT array) (peptide, UniProt O75190 118-130, looked up)
peptide: PFEDFFGNRRGPR
notes: DnaJ homolog subfamily B member 6 (DNAJB6), residues 118-130; holds a partial DFx{2,3}R motif; also called DnaJ homolog subfamily B member 6; source: alanine scan: INTAVIS

binding result [1]: binds
B8: Cadherin-1 863-877 peptide, cellulose-bound (SPOT array) (peptide, UniProt P12830 863-877, looked up)
peptide: NEWGNRFKKLADMYG
notes: cadherin-1 (CDH1), residues 863-877; holds an RFxxL motif; also called CDH1_(863 − 877); source: alanine scan: INTAVIS
